Measured values published in US20040038369A1, “Airway-specific trypsin-like enzymes and method of using the same” (priority 2000, published 2004).

Assay: Enzymatic activity of mammalian ASTs transiently expressed in 293 EBNA cells
Type: biochemical
Settings: 293 EBNA cell lysate, three days after transfection
Experimental: A forward primer and a reverse primer were prepared on gene sequences encoding the N-terminal and C-terminal of each mammalian AST, and a cDNA encoding the full-length AST was prepared by a PCR amplification using the forward primer, the reverse primer, Pyrobest DNA polymerase (produced by Takara Shuzo Co.), and an airway cDNA as a template. On the other hand, a product obtained by cleaving pcDNA3 (produced by Invitrogen Corp.) with restriction enzymes NruI and KpnI, and the promoter domain of Elongation Factor-1a (EF-1 a) from human genome were amplified by a PCR using a forward primer: […] and a reverse primer: […]. The amplified fragment was cleaved with restriction enzymes NruI and KpnI, and then inserted into the above-described plasmid vector to construct the pEF9 expression vector having the promoter of the human EF-1α. The PCR-amplified ATS fragment was inserted into a multi-cloning site in the downstream of the human EF-1α promoter of the above-described pEF9 expression vector to prepare each animal AST expression plasmid. The base sequences were identified with an automatic sequencer.
Human fetal kidney-originated 293 EBNA cells (Invitrogen Corp.) were cultured in a 10 cm schale, and the about 5.8×10^6 cells were transfected with 28 μg of each expression plasmid prepared in (1) in 56 μL of LipofectAMINE 2000 (produced by GibcoBRL Corp.) according to an appended manual. Three days later, the cells were lysed and recovered in 5 mL of M-PER (produced by PIERCE Corp.) and then mixed with 5 mL of a buffer solution (50 mM Tris-HCl, 0.01% BSA, pH=8.6) for AST activity assay to give the cell lysate. The cell lysate was further diluted with the buffer solution for the AST activity assay ten times, and then supplied for the activity assay. 40 μL of the above-described assay sample was mixed with 20 μL of a synthetic substrate solution (a solution obtained by diluting a 10 mM Boc-Phe-Ser-Arg-MCA DMSO (dimethyl sulfoxide) solution with the buffer solution for the AST activity assay 50 times), and the increase of the fluorescence intensity per minute was assayed (fluorescence wavelength: 460 nm, excitation wavelength: 380 nm) to determine the enzymatic activity.

Molecule | Cell lysate Fluorescence intensity ratio (Human:100)
Pig: pig AST, SEQ ID NO: 26 and 27 (protein, listed as Sus scrofa) MYRPATVRSASRSLNPYTVCFIVVAVVVILAVTIALLVHFLAFDQKAYFYHSRFQILNVEYSDELNSPATQKYRSLSGRIESMITRTFKESNLRNQFVRAHVVKLRQSGSGVIADIVMKFKFTRYNNGASMKSRIESVLRQMLNNTGNLVMNPSTELTPITDQDTVNIFTQGCGARPDLITLSEERIIGGTKAEEGDWPWQVSLQRNNLHHCGGVLISNRWILTAAHCFRSYSDPRQWTVTFGISTIFPKDRIGVRNILIHNNYNPETHENDIALVQLNREVAFTKNIHSVCLPEATQTIPPGSTAYVTGWGSQRYSGNTVPDLEQVRVNIISNDVCNSPAGYNGDVLPGMLCAGLPEGGADACQGDSGGPLQQEDSRRLWFLVGIVSWGYQCGLPDKPGVYTRVTAYRDWIAQQTGI | 92
Rabbit: rabbit AST, SEQ ID NO: 34 and 35 (protein, listed as Oryctolagus cuniculus) MYRPARGSSTSRFLNPYVICFIVVAVVVILAVIVALLIHFLAFDKKSCFFHSSFQIRNVQYSDQLNSPATQEYRLLSERIESMISQTLQGSNLRNQFIRAHVVKLRQDSNSVIADVVMKFRVSRNNNGDAMKRRVQDVLQQMLNNSGSLEINPSTTVTEITGQDTETIFTQQCGARPDLITLSEERIIGGTQAEEGDWPWQVSLQPNNAHHCGGILISNTWILTAAHCFRSYSDPRQWTATFGISTAVSRQRMRIRTILVHNNYRSATHENDIAAVQLEGAITFTRNIHSVCLPEATQNITPGSSAYVTGWGSLEYGGNTVTYLQQGRVRIISNEVCNAPASYNGAVLPTMVCAGLSQGGVDACQGDSGGPLVQEDSRRLWFVVGIVSWGYQCGLPDKPGVYTRVTAYRDWIREQTGI | 30
Cattle: cattle AST, SEQ ID NO: 32 and 33 (protein, listed as Bos taurus) MYRPARVTSASRSLNPYLVFFVVVAVVVILAVIIGLLVYFLAFDQKSYFYQSSIQILGKQYSDELSSPATEKYRTLSGRIESMITKTFKESDLKNEFIKAHVVKLRQSGNNVIADIIMKFKFTRRINEASMKSRIESILRQMPNNSEDLNMNPTQVISITGQDTIQLFTRECGVRSDLITLSEERIIGGSKAEKGDWPWQVSLQWSSSHRCGGALISNRWILSAAHCFRSHSDPRQWIATFGTSTISPQLRVGVRNILIHDNYKPETHENDIALVQLDREVTFNRYIHTVCLPEANQAISAGSTAYVTGWGSQSYSGSTVSDLNQGRVNIISNTVCNTPAGYNGAVLSGMLCAGLPEGGVDACQGDSGGPLVQEDSRQHWFIVGIVSWGYQCGLPDKPGVYTRVTAYRDWITQQTGI | 16
Dog: dog AST, SEQ ID NO: 30 and 31 (protein, listed as Canis familiaris) MYRPARVPSGSRFLNPYVVCFVVVAGVVILAVTIALLIHFLAFDQKSYFYHSSFQILNVQYSNQLNSPGTQEYRTLSGRIESLITKTFRESNLRNQFIRAHVVKLRQEGNGVIADVVMKFKFTRNNNGALMKSRIKSVLHQMLNNSGNLEISPSTEITSITDQDTVNIFTEGCGARPDLITLSEERILGGNKAEEGDWPWQVSLQKNNVHHCGGVLISSMWILSAAHCFRSQSNPRQWTAIFGASIAFPKQKRRVRTILIHNNYNPATHENDIAAIQLEGGINFTKNIHRVCLPEATQNIPPGSSAYVTGWGSQEYGGNTVSDLQQARVRIISNDVCNAPTSYNGAVRPGMLCAGLPQGGVDACRGDSGGPLVQEDSRRLWFLVGIVSWGDRCGLPDKPGVYTRVTAYRDWITEKTGV | 40
Monkey: monkey AST, SEQ ID NO: 28 and 29, expressed in 293 EBNA cells (protein, listed as Macaca fascicularis) MYRPARVPSTSRFLNPYVVCFIVVAGVVILAVTIALLVYFLAFDQKSYFYRSSFQLLNVEYNSQLNSPATQEYRTLSGRIESLITRTFKESNLRNQFMRAHVVKLSQDGSGVRADVVMKFRFTRNNNGASMKSRIESVLQQMLNNSGNLEINSSTEITSLTDQAAANWLINECGAGPDLITLSEQRIIGGTEAEEGSWPWQVSLRVNNAHHCGGSLISNTWILTAAHCFRSNSNPREWIATFGISTTNPRLRMRVRSILIHNNYISATHENDIALVRLENSVTFTRDIHSVCLPAATQNIPLGSTAYVTGWGAQEYAGSTVSELRQAQVRIISNDVCNAPYSYNGGILPGMLCAGVPQGGVDACQGDSGGPLVQEDSRRLWFLVGIVSWGDQCGLPDRPGVYTRVTTYRDWIRQRTGI | 250

Same assay, conditions: 293 EBNA, Sup

Molecule | Sup Fluorescence intensity ratio (Human:100)
Monkey: monkey AST, SEQ ID NO: 28 and 29, expressed in 293 EBNA cells (protein, listed as Macaca fascicularis) MYRPARVPSTSRFLNPYVVCFIVVAGVVILAVTIALLVYFLAFDQKSYFYRSSFQLLNVEYNSQLNSPATQEYRTLSGRIESLITRTFKESNLRNQFMRAHVVKLSQDGSGVRADVVMKFRFTRNNNGASMKSRIESVLQQMLNNSGNLEINSSTEITSLTDQAAANWLINECGAGPDLITLSEQRIIGGTEAEEGSWPWQVSLRVNNAHHCGGSLISNTWILTAAHCFRSNSNPREWIATFGISTTNPRLRMRVRSILIHNNYISATHENDIALVRLENSVTFTRDIHSVCLPAATQNIPLGSTAYVTGWGAQEYAGSTVSELRQAQVRIISNDVCNAPYSYNGGILPGMLCAGVPQGGVDACQGDSGGPLVQEDSRRLWFLVGIVSWGDQCGLPDRPGVYTRVTTYRDWIRQRTGI | 150
